Source: patent US20250188161A1

B1: LMT-2 (6D12) (antibody, V domains shown)
VH: EVQLVESGGGLVQPGGSLRLSCAASGFTFSNYGVHWVRQAPGKGLEWVSHISAAGISRYYADAVKGRFTMSRDNGKNTLYLQMNGLKSEDTAVYYCAKDRIRSSYEYDSWGQGTQVTVSS
VL: LPVLTQLSSMSGSPGQTVTITCTGSSSNIGGGYYLSWYQQLPGTAPKLLIYNANNRASGVPNRFSGSKSGNLASLTITGLQAEDEADYYCGCYDSSLSTGYVFGGGTKLTVL
B2: LMT-9 (20G3) (antibody, V domains shown)
VH: LQLVESGGGLVQPGGSLRLSCAASGFTFSRSGMAWVRQAPGKGLEWVSAITPGGTATYYANSVKGRVTMSRDNAKNTLYLQMNSLKSEDTAVYYCAKGLVSSGLNGMDYWGKGTLVTVSS
VL: QSVLTQLSSMSGSPGQTVTITCTGSSSNIGGGYYLSWYQQLPGTAPKLLIYNTNNRASGVPNRFSGSKTGSLASLTITGLQAEDEADYYCGCYDDSLNTYVFGGGTKLTVL
B3: LMT-12 (14D7) (antibody, V domains shown)
VH: EVQLVESGGGLVQPGGSLRLSCAASGFTFSSYYMYWVRQAPGKGLEWVSGTSIGGGSTWYADSVKGRFTISRDNAKNTLYLQMNNLKSEDTAVYYCAKDLNSRSYKGMGDWGQGTQVTVSS
VL: QPALTQLSSMSGSPGQTVTITCTGSSSNIGGGYYLNWYQQLPGAAPKLVIYNANNRASGVPDRFSGSKSGNLASLTITGLQAEDEAVYFCGCYDSSLSSVVFGGGTHLTVL
B4: LMT-10 (20G4) (antibody, V domains shown)
VH: QVQLVESGGGLVQPGGSLTLSCAASGFTFSNYYMTWVRQAPGKGLEWVSSIYSTGSHTYYADSVKGRFTISRDNAKDTLYLQMNDLKSEDTAVYYCAKNIYTYYTAHYAGMDYWGKGTLVTVSS
VL: QSALTQPSTVSVSLGQMARITCQGGSLGSYDAHWYQQKPGQAPVLVIHDDNSRPSGIPERFSGSRSGGTATLTISGAQADDEGVYFCHSYDSSANAPVFGGGTELTVL
B5: LHT-15 (13E7) (antibody, V domains shown)
VH: EVQLVESGGDLVQPGGSLRLSCAASGFTFSSYWMDWVRQAPGKGLEWVSRITNSGGTAFYTDSVEGRFTISRDNAKNTLYLQMNSLKSEDTAVYYCLRYITRAQLMGAWDYWGQGTQVTVSS
VL: ATMLTQSPGSLSVVPGESASISCKASQSLVHTDGKTYLSWLLQKPGQRPQLLIYQVSNRASGVPDRFTGSGSGTDFTLKISGVKAEDAGVYYCAQSTYYPYDFGSGTRLEIR
B6: LHT-18 (14E7) (antibody, V domains shown)
VH: QVQLVESGGGLVQPGGSLRLSCAASGFTFSHYWMYWVRQAPGKGLEWVSAINTGGGITYYTDSVKGRFTVSRDNAKNTLYLQMNSLKSEDTAVYYCAKSRYGVVITTTYFGGVDYWGKGTLVTVSS
VL: SSALTQPSAVSVSLGQTARITCQGGNFGSYYASWYQQKPGQAPVQVIYGNSNRPSGIPERFSGSSSGDTATLTISGAQAEDEADYYCLSYESSGYAVFGGGTHLTVL
B7: LHT-22 (15A2) (antibody, V domains shown)
VH: ELQLVESGGGLVQPGGSLRLSCAASGFTFDDYTMNWVRQAPGKGLEWVSAIRWNGVTTYYAESMKGRFTVSRDNGNNTLYLQMNSLKAEDTAVYYCAKGGSIDLTYGMDYWGKGTLVTVSS
VL: QAVVTQEPSLSVSPGGTVTITCGLSSGSVTRNNYPDWYQQTPGQAPRLLLYNTVARHSGVPSRFSGSISGNKAALTITGAQPEDEAGYYCALYMYTGSNNGRVFGGGTLLTVL

biological target: HA-tagged mouse-human-mouse chimeric TGF-β1, mouse LAP residues 136-200 replaced by the corresponding human LAP segment, on HEK-293T cells co-transfected with GARP (mouse; human) (UniProt P04202); assay: flow cytometry, HEK-293T cells co-transfected with mGarp and the HA-tagged TGF-β1 construct

Row | Binder | % binding relative to WT TGF-β1 (100 %)
1 | B1 | 155%
2 | B2 | 108%
3 | B3 | 105%

biological target: HA-tagged mouse-human-mouse chimeric TGF-β1, mouse LAP residues 223-278 replaced by the corresponding human LAP segment, on HEK-293T cells co-transfected with GARP (mouse; human) (UniProt P04202); assay: as above

Row | Binder | % binding relative to WT TGF-β1 (100 %)
4 | B1 | 115%
5 | B2 | 126%
6 | B3 | 89%
7 | B4 | 99%

biological target: HA-tagged mouse-human-mouse chimeric TGF-β1, mouse LAP residues 87-135 replaced by the corresponding human LAP segment, on HEK-293T cells co-transfected with GARP (mouse; human) (UniProt P04202); assay: as above

Row | Binder | % binding relative to WT TGF-β1 (100 %)
8 | B1 | 157%
9 | B2 | 164%
10 | B3 | 99%
11 | B5 | 101%
12 | B4 | 158%

biological target: HA-tagged mouse-human-mouse chimeric TGF-β1, mouse LAP residues 201-222 replaced by the corresponding human LAP segment, on HEK-293T cells co-transfected with GARP (mouse; human) (UniProt P04202); assay: as above

Row | Binder | % binding relative to WT TGF-β1 (100 %)
13 | B1 | 2%
14 | B2 | 2%
15 | B3 | 3%
16 | B6 | 63%
17 | B4 | 126%
18 | B7 | 89%
